Reference: patent US20140134183A1 (CELL MEDICA SWITZERLAND, published 2014)
Where two headings read alike, the source gives them in different places.

Assays:
Experiment in all cases: cell-based or functional assay
[1] = target: T1, recombinant human IL-1 beta (human, UniProt P01584 117-269)
[2] = target: T1, recombinant human IL-1 beta; remark: listed apart in the source
[3] = target: T1, recombinant human IL-1 beta; remark: listed apart in the source
[4] = target: T1, recombinant human IL-1 beta; remark: listed apart in the source

B1: DLX2467 (scFv)
scFv: EIVMTQSPSTLSASVGDRVIITCQASQSIHNWLSWYQQKPGKAPKLLIYRASNLASGVPSRFSGSGSGAEFTLTISSLQPDDFATYYCQNTGGGSSIAFGQGTKLTVLGGGGGSGGGGSGGGGSGGGGSEVQLVESGGGLVQPGGSLRLSCTASGFSLSRAAMAWVRQAPGKGLEWVGIIYDSASTYYASWAKGRFTISRDTSKNTVYLQMNSLRAEDTAVYYCARERMIFSGDFVLWGQGTLVTVSS
IC50 of IL-1 beta-induced IL-6 release from human dermal fibroblasts [1]: 25 pM

B2: DLX2480 (scFv)
scFv: EIVMTQSPSTLSASVGDRVIITCQASQSIDNWLSWYQQKPGKAPKLLIYRASTLASGVPSRFSGSGSGAEFTLTISSLQPDDFATYYCQNTGGGINIAFGQGTKLTVLGGGGGSGGGGSGGGGSGGGGSEVQLVESGGGLVQPGGSLRLSCTASGFSLSDAAMAWVRQAPGKGLEWVGIIYDSASTYYASWAKGRFTISRDTSKNTVYLQMNSLRAEDTAVYYCARERQIFSGDFVLWGQGTLVTVSS
IC50 of IL-1 beta-induced IL-6 release from human dermal fibroblasts [1]: 5 pM

B3: DLX2545 (scFv)
scFv: EIVMTQSPSTLSASVGDRVIITCQASQSIDNWLSWYQQKPGKAPKLLIYRASTLASGVPSRFSGSGSGAEFTLTISSLQPDDFATYYCQNTGGGVSIAFGQGTKLTVLGGGGGSGGGGSGGGGSGGGGSEVQLVESGGGLVQPGGSLRLSCTASGFSLSSAAMAWVRQAPGKGLEWIGIIYDSASTYYASWAKGRFTISRDTSKNTLYLQMNSLRAEDTAVYFCARERNIFSGDMVLWGQGTTVTVSS
IC50 of IL-1 beta-induced IL-6 release from human dermal fibroblasts [2]: 7 pM

B4: DLX2528 (scFv)
scFv: EIVMTQSPSTLSASVGDRVTITCQASQSIGNWLAWYQQKPGKAPKLLIYQASNLASGVPSRFSGSGSGTDFTLTISSLQPDDFATYYCQNAGGATTIAFGQGTKLTVLGGGGGSGGGGSGGGGSGGGGSEVQLVESGGGLVQPGGSLRLSCTASGFSLSSAAMAWVRQAPGKGLEWVGIIYDSASTYYASWAKGRFTISRDTSKNTVYLQMNSLRAEDTAVYYCARERAIFSGDFVLWGQGTLVTVSS
IC50 of IL-1 beta-induced IL-6 release from human dermal fibroblasts [2]: 8 pM

B5: DLX2547 (scFv)
scFv: ADIVMTQSPSTLSASVGDRVTITCQASQSISSYLSWYQQKPGKAPKLLIYRASTLASGVPSRFSGSGSGAEFTLTISSLQPDDFATYYCQNTGGGINIAFGQGTKLEIKRGGGGSGGGGSGGGGSGGGGSEVQLVESGGGLVQPGGSLRLSCTASGFSLSSAAMAWVRQAPGKGLEWVGIIYDSASTYYASWAKGRFTISRDTSKNTVYLQMNSLRAEDTAVYYCARERAIFSGDFVLWGQGTLVTVSS
IC50 of IL-1 beta-induced IL-6 release from human dermal fibroblasts [2]: 30 pM

B6: DLX2693 (scFv)
scFv: ADIVMTQSPSTLSASVGDRVTITCQASQSISSYLSWYQQKPGKAPKLLIYRASTLASGVPSRFSGSGSGAEFTLTISSLQPDDFATYYCQNTGGGINIAFGQGTKLEIKRGGGGSGGGGSGGGGSGGGGSEVQLVESGGGNVQPGGSLRLSCTASGFSLSNSAMAWVRQAPGKGLEWVGIIYDSASTYYASWAKGRFTISRDNSKNTVYLQMNSLRAEDTATYYCARERAIFSGDFALWGQGTLVTVSS
IC50 of IL-1 beta-induced IL-6 release from human dermal fibroblasts [3]: 12.5 pM

B7: DLX2586 (scFv)
scFv: EIVMTQSPSTLSASVGDRVIITCQASQSIDNWLSWYQQKPGKAPKLLIYRASTLASGVPSRFSGSGSGAEFTLTISSLQPDDFATYYCQNTGGGVSIAFGQGTKLTVLGGGGGSGGGGSGGGGSGGGGSEVQLVESGGGLVQPGGSLRLSCTVSGFSLSSYAMSWVRQAPGKGLEWIGIIYDSASTYYASWAKGRFTISKDTSKNTVYLQMNSLRAEDTAVYFCARERQIFSGDMDGWGQGTLVTVSS
IC50 of IL-1 beta-induced IL-6 release from human dermal fibroblasts [2]: 2 pM

B8: DLX2681 (scFv)
scFv: EIVMTQSPSTLSASVGDRVIITCRASQSIGNWLSWYQQKPGKAPKLLIYRASNLASGVPSRFSGSGSGAEFTLTISSLQPEDFATYYCQNTGGGINIAFGQGTKLTVLGGGGGSGGGGSGGGGSGGGGSEVQLVESGGGNVQPGGSLRLSCTASGFSLSNSAMAWVRQAPGKGLEWVGIIYDSASTYYASWAKGRFTISRDNSKNTVYLQMNSLRAEDTATYYCARERAIFSGDFALWGQGTLVTVSS
IC50 of IL-1 beta-induced IL-6 release from human dermal fibroblasts [3]: 0.6 pM

B9: canakinumab IgG (Novartis, ILARIS) (antibody, V domains shown)
VH: QVQLVESGGGVVQPGRSLRLSCAASGFTFSVYGMNWVRQAPGKGLEWVAIIWYDGDNQYYADSVKGRFTISRDNSKNTLYLQMNGLRAEDTAVYYCARDLRTGPFDYWGQGTLVTVSS
VL: EIVLTQSPDFQSVTPKEKVTITCRASQSIGSSLHWYQQKPDQSPKLLIKYASQSFSGVPSRFSGSGSGTDFTLTINSLEAEDAAAYYCHQSSSLPFTFGPGTKVDIKR
IC50 of IL-1 beta-induced IL-6 release from human dermal fibroblasts [3]: 90 pM

B10: anti-human IL-1 beta monoclonal IgG antibody MAB201 (antibody, from another filing, V domains shown)
VH: QVTLKESGPGILKPSQTLSLTCSFSGFSLSTSGMGVGWIRQPSGKGLEWLAHIWWDGDESYNPSLKTRLTISKNTSRNQVFLKITTVDTVDTATYFCARNRYDPPWFVDWGQGTLVTVSS
VL: DIQMTQTTSSLSASLGDRVTISCRASQDISNYLSWYQQKPDGTVKLLIYYTSKLHSGVPSRFSGSGSGTDYFLTISNLEQEDIATYFCLQGKMLPWTFGGGTKLEIK
IC50 of IL-1 beta-induced IL-6 release from human dermal fibroblasts [4]: 2 to 3 pM

B11: DLX2466 (scFv)
scFv: EIVMTQSPSTLSASVGDRVIITCQASQSIGKYLSWYQQKPGKAPKLLIYRASTLASGVPSRFSGSGSGAEFTLTISSLQPDDFATYYCQNAGGGVSIAFGQGTKLTVLGGGGGSGGGGSGGGGSGGGGSEVQLVESGGGLVQPGGSLRLSCTASGFSLSSDAMAWVRQAPGKGLEWVGIIYDSASTYYASWAKGRFTISRDTSKNTVYLQMNSLRAEDTAVYYCARERNIFSGDMAGWGQGTLVTVSS
IC50 of IL-1 beta-induced IL-6 release from human dermal fibroblasts [1]: 300 pM

B12: DLX2476 (scFv)
scFv: EIVMTQSPSTLSASVGDRVIITCQASQSISSWLSWYQQKPGKAPKLLIYRASTLASGVPSRFSGSGSGAEFTLTISSLQPDDFATYYCQNTGGGVSIAFGQGTKLTVLGGGGGSGGGGSGGGGSGGGGSEVQLVESGGGLVQPGGSLRLSCTASGFSLSSAAMAWVRQAPGKGLEWVGIIYDSASTYYASWAKGRFTISRDTSKNTVYLQMNSLRAEDTAVYYCARERDIFSGDFVGWGQGTLVTVSS
IC50 of IL-1 beta-induced IL-6 release from human dermal fibroblasts [1]: 100 pM

B13: DLX2468 (scFv)
scFv: EIVMTQSPSTLSASVGDRVIITCQASQSIGNYLSWYQQKPGKAPKLLIYRASTLASGVPSRFSGSGSGAEFTLTISSLQPDDFATYYCQNAGGGTSIAFGQGTKLTVLGGGGGSGGGGSGGGGSGGGGSEVQLVESGGGLVQPGGSLRLSCTASGFSLSSSAMAWVRQAPGKGLEWVGIIYDSASTYYASWAKGRFTISRDTSKNTVYLQMNSLRAEDTAVYYCARERNIFSGDMVLWGQGTLVTVSS
IC50 of IL-1 beta-induced IL-6 release from human dermal fibroblasts [1]: 15 pM

B14: DLX2475 (scFv)
scFv: EIVMTQSPSTLSASVGDRVIITCQASQSIDKWLSWYQQKPGKAPKLLIYQASTLASGVPSRFSGSGSGAEFTLTISSLQPDDFATYYCQNTGGGVHIAFGQGTKLTVLGGGGGSGGGGSGGGGSGGGGSEVQLVESGGGLVQPGGSLRLSCTASGFSLSSYAMAWVRQAPGKGLEWVGIIYDSASTYYASWAKGRFTISRDTSKNTVYLQMNSLRAEDTAVYYCARERAIFSGDFKLWGQGTLVTVSS
IC50 of IL-1 beta-induced IL-6 release from human dermal fibroblasts [1]: 200 pM
